Results published in patent US20180030151A1 (MOGAM INSTITUTE FOR BIOMEDICAL RESEARCH, published 2018).
Read-outs that look alike come from different tables or passages of the source.

How the values were obtained:
[1] = biological target: T1, recombinant human TFPI (tissue factor pathway inhibitor) (human, UniProt P10646 29-304); assay: cell-based or functional assay
[2] = biological target: T1, recombinant human TFPI (tissue factor …); assay: SPR, Biacore T-200; TFPI immobilised on CM5 chip, IgG as analyte
Method: 10 mM of glycine-HCl (pH 1.5) was run at a flow rate of 30 μL/min for 30 seconds, thereby inducing the dissociation of the antibody associated with the TFPI. The affinity in terms of kinetic rate constants (Kₒₙ and Koff) and equilibrium dissociation constant

[3] = biological target: T1, recombinant human TFPI (tissue factor …); assay: cell-based or functional assay; remark: listed apart in the source
[4] = biological target: T1, recombinant human TFPI (tissue factor …); assay: cell-based or functional assay; remark: listed apart in the source
[5] = biological target: T1, recombinant human TFPI (tissue factor …); assay: cell-based or functional assay; remark: listed apart in the source
[6] = biological target: T1, recombinant human TFPI (tissue factor …); assay: cell-based or functional assay; remark: listed apart in the source

% of Normalized, TF/FVIIa/FX complex assay, Ab 1.56 nM [1]: 15.2% | % of Normalized, TF/FVIIa/FX complex assay, Ab 3.13 nM [1]: 16.8% | % of Normalized, TF/FVIIa/FX complex assay, Ab 6.25 nM [1]: 19.5% | % of Normalized, TF/FVIIa/FX complex assay, Ab 12.5 nM [1]: 26.3% | % of Normalized, TF/FVIIa/FX complex assay, Ab 25 nM [1]: 92.2% | % of Normalized, TF/FVIIa/FX complex assay, Ab 50 nM [1]: 95.1% | % of Normalized, TF/FVIIa/FX complex assay, Ab 100 nM [1]: 99% | Kd [2]: 6.7 pM | FXa assay % of FXa alone, 2.5 nM Ab, 10 nM TFPI [3]: 5.4% | FXa assay % of FXa alone, 5 nM Ab, 10 nM TFPI [3]: 8% | FXa assay % of FXa alone, 10 nM Ab, 10 nM TFPI [3]: 30.7% | FXa assay % of FXa alone, 20 nM Ab, 10 nM TFPI [3]: 58.5% | FXa assay OD, 2.5 nM Ab, 10 nM TFPI [3]: 0.041 | FXa assay OD, 5 nM Ab, 10 nM TFPI [3]: 0.061 | FXa assay OD, 10 nM Ab, 10 nM TFPI [3]: 0.234 | FXa assay OD, 20 nM Ab, 10 nM TFPI [3]: 0.446 | % of Normalized, TF/FVIIa/FX complex assay, Ab 1.56 nM [4]: 5.2% | % of Normalized, TF/FVIIa/FX complex assay, Ab 3.13 nM [4]: 5.5% | % of Normalized, TF/FVIIa/FX complex assay, Ab 6.25 nM [4]: 5.8% | % of Normalized, TF/FVIIa/FX complex assay, Ab 12.5 nM [4]: 8.7% | % of Normalized, TF/FVIIa/FX complex assay, Ab 25 nM [4]: 32.1% | % of Normalized, TF/FVIIa/FX complex assay, Ab 50 nM [4]: 70.7% | % of Normalized, TF/FVIIa/FX complex assay, Ab 100 nM [4]: 95.5% | % of Normalized, TF/FVIIa/FX complex assay, Ab 1.56 nM [5]: 17.5% | % of Normalized, TF/FVIIa/FX complex assay, Ab 3.13 nM [5]: 17.2% | % of Normalized, TF/FVIIa/FX complex assay, Ab 6.25 nM [5]: 20% | % of Normalized, TF/FVIIa/FX complex assay, Ab 12.5 nM [5]: 27.7% | % of Normalized, TF/FVIIa/FX complex assay, Ab 25 nM [5]: 97.7% | % of Normalized, TF/FVIIa/FX complex assay, Ab 50 nM [5]: 102% | % of Normalized, TF/FVIIa/FX complex assay, Ab 100 nM [5]: 102% | FXa assay % of FXa alone, 2.5 nM Ab, 10 nM TFPI [6]: 9.8% | FXa assay % of FXa alone, 5 nM Ab, 10 nM TFPI [6]: 52.1% | FXa assay % of FXa alone, 10 nM Ab, 10 nM TFPI [6]: 69.4% | FXa assay % of FXa alone, 20 nM Ab, 10 nM TFPI [6]: 81.8% | FXa assay OD, 2.5 nM Ab, 10 nM TFPI [6]: 0.079 | FXa assay OD, 5 nM Ab, 10 nM TFPI [6]: 0.42 | FXa assay OD, 10 nM Ab, 10 nM TFPI [6]: 0.56 | FXa assay OD, 20 nM Ab, 10 nM TFPI [6]: 0.66
B1: clone T417 (antibody, V domains shown)
VH: EVHLVESGGDLVKPGGSLKLSCAASGFTFSSYAMSWVRQTPDKRLEWVATITTGGSYTYYPDSVKGRFTISRDNAKNTLYLQMSSLKSEDTAMYYCARQDGNFLMDYWGQGTTVTVSS
VL: not shown
notes: also called T417 chimeric antibody
